Target: recombinant Xenopus TACC3/maskin (TACC3-WT), full length, His6-tagged (Xenopus laevis) (UniProt Q9PTG8)
Experiment: sucrose density gradient centrifugation + SEC

Chain of recombinant Xenopus TACC3/maskin (TACC3-WT), full length, His6-tagged (Xenopus laevis) (Q9PTG8 whole entry): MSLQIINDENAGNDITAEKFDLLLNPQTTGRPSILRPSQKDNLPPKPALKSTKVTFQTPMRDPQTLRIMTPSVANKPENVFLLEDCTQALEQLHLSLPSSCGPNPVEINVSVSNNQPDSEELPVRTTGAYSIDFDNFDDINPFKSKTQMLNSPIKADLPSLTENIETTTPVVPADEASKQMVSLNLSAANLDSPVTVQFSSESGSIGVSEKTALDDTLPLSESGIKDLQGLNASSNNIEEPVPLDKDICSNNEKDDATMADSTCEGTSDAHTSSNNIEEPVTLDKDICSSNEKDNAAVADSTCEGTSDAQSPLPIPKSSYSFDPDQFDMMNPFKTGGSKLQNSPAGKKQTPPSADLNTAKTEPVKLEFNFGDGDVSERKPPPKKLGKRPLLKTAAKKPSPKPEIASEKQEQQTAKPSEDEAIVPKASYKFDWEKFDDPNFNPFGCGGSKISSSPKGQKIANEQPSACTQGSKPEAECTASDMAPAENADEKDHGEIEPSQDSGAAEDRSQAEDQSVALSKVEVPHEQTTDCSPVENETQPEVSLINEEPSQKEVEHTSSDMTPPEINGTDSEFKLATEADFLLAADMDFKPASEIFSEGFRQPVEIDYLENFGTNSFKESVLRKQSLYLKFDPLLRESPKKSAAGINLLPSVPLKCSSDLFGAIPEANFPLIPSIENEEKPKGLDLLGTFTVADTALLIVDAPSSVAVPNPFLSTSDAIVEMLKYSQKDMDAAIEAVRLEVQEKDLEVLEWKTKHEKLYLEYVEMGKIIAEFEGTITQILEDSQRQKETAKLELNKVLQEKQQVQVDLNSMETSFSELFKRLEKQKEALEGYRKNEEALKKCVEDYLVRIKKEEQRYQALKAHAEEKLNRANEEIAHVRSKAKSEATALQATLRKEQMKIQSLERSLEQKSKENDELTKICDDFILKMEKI

Question: For recombinant XMAP215, Q9PT63 1-2065, which stoichiometry N is on record?
Answer: Its stoichiometry N is 1.
